Measured values reported in the supplement of paper PMC9112550, “Optimization of the antimicrobial peptide Bac7 by deep mutational scanning” (BMC Biology, 2022).

Tested on: Escherichia coli TOP10
Assay: shrunken log2 fold change of peptide-encoding DNA abundance (4.5 h post-induction vs induction); higher = less antimicrobial activity (less host growth inhibition)
Settings: time post-induction: 4.5 h; library: site-saturation at positions 5, 18, 19, 20
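Also: peptides expressed intracellularly from a pBAD plasmid library in pooled LB shake-flask culture, induced with 0.3% L-arabinose, DNA abundance read by NGS, three biological replicates, DESeq2 with apeglm shrinkage.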

Sequence	shrunken log2 fold change
RRIRRRPPRLPRPRPRPASQPRP	0.0789
RRIRPRPPRLPRPRPRPIARPRP	-0.0116
RRIRERPPRLPRPRPRPIMPPRP	-0.356
RRIRDRPPRLPRPRPRPTQHPRP	0.396
RRIRNRPPRLPRPRPRPQQDPRP	-0.38
RRIRYRPPRLPRPRPRPMDNPRP	-0.0386
RRIRRRPPRLPRPRPRPCDYPRP	-0.489
RRIRKRPPRLPRPRPRPWIMPRP	-0.132
RRIRLRPPRLPRPRPRPKQDPRP	-0.199
RRIRERPPRLPRPRPRPNWIPRP	-0.324
RRIRFRPPRLPRPRPRPIVMPRP	-0.731
RRIRGRPPRLPRPRPRPFEGPRP	0.0595
RRIRARPPRLPRPRPRPTTPPRP	0.605
RRIRQRPPRLPRPRPRPRQPPRP	0.622
RRIRHRPPRLPRPRPRPTMWPRP	0.22
RRIRSRPPRLPRPRPRPGTDPRP	-0.0659
RRIRERPPRLPRPRPRPCPGPRP	-0.451
RRIRARPPRLPRPRPRPLCGPRP	0.467
RRIRERPPRLPRPRPRPIRCPRP	0.0648
RRIRKRPPRLPRPRPRPVQIPRP	0.13
RRIRCRPPRLPRPRPRPAKYPRP	-0.299
RRIRWRPPRLPRPRPRPGYGPRP	-0.0305
RRIRGRPPRLPRPRPRPVSYPRP	0.291
RRIRARPPRLPRPRPRPWGEPRP	-0.00466
RRIRGRPPRLPRPRPRPVPQPRP	0.618

Sequence	shrunken log2 fold change
RRIRNRPPRLPRPRPRPENAPRP	-0.133
RRIRWRPPRLPRPRPRPAHTPRP	-0.172
RRIRTRPPRLPRPRPRPKKYPRP	-0.627
RRIRYRPPRLPRPRPRPSCLPRP	-0.56
RRIRFRPPRLPRPRPRPIWTPRP	-0.0298
RRIRERPPRLPRPRPRPSWHPRP	-0.215
RRIRWRPPRLPRPRPRPQMKPRP	-0.316
RRIRERPPRLPRPRPRPMVHPRP	-0.281
RRIRSRPPRLPRPRPRPVRLPRP	0.196
RRIRARPPRLPRPRPRPGFNPRP	0.252
RRIRCRPPRLPRPRPRPHKEPRP	-0.334
RRIRIRPPRLPRPRPRPRTFPRP	-0.143
RRIRNRPPRLPRPRPRPLSWPRP	0.235
RRIRGRPPRLPRPRPRPLPDPRP	0.926
RRIRRRPPRLPRPRPRPSWIPRP	-0.284
RRIRYRPPRLPRPRPRPWKHPRP	-0.0695
RRIRVRPPRLPRPRPRPDNTPRP	-0.426
RRIRQRPPRLPRPRPRPNADPRP	0.00101
RRIRFRPPRLPRPRPRPCEKPRP	0.00738
RRIRVRPPRLPRPRPRPYQLPRP	-0.228
RRIRSRPPRLPRPRPRPLMPPRP	0.121
RRIRLRPPRLPRPRPRPLSHPRP	0.2
RRIRQRPPRLPRPRPRPFERPRP	0.0412
RRIRYRPPRLPRPRPRPVGMPRP	-0.083
RRIRIRPPRLPRPRPRPAMWPRP	0.13

Sequence	shrunken log2 fold change
RRIRMRPPRLPRPRPRPTNKPRP	0.111
RRIRNRPPRLPRPRPRPDRAPRP	0.171
RRIRVRPPRLPRPRPRPKPYPRP	0.0131
RRIRTRPPRLPRPRPRPSIMPRP	-0.827
RRIRTRPPRLPRPRPRPTQPPRP	0.176
RRIRSRPPRLPRPRPRPDISPRP	-0.0675
RRIRHRPPRLPRPRPRPQTLPRP	-0.313
RRIRDRPPRLPRPRPRPFFYPRP	-0.0714
RRIRCRPPRLPRPRPRPMPAPRP	0.849
RRIRDRPPRLPRPRPRPYIVPRP	0.0363
RRIRVRPPRLPRPRPRPLMNPRP	-0.649
RRIRKRPPRLPRPRPRPGKNPRP	-0.181
RRIRDRPPRLPRPRPRPMYIPRP	-0.148
RRIRARPPRLPRPRPRPAHWPRP	0.535
RRIRFRPPRLPRPRPRPRFRPRP	-0.0973
RRIRVRPPRLPRPRPRPCGEPRP	-0.256
RRIRGRPPRLPRPRPRPFECPRP	0.0132
RRIRHRPPRLPRPRPRPMNWPRP	-0.209
RRIRCRPPRLPRPRPRPQKDPRP	-0.202
RRIRQRPPRLPRPRPRPKSAPRP	-0.0082
RRIRMRPPRLPRPRPRPTDMPRP	0.0845
RRIRYRPPRLPRPRPRPGCYPRP	-0.8
RRIRQRPPRLPRPRPRPYPEPRP	-0.0761
RRIRGRPPRLPRPRPRPWYVPRP	-2.24
RRIRGRPPRLPRPRPRPDNYPRP	0.0266

Sequence	shrunken log2 fold change
RRIRSRPPRLPRPRPRPKTDPRP	0.124
RRIRVRPPRLPRPRPRPLIRPRP	-0.352
RRIRFRPPRLPRPRPRPHYWPRP	-0.505
RRIRNRPPRLPRPRPRPLRWPRP	1.25
RRIRYRPPRLPRPRPRPTGIPRP	-0.114
RRIRWRPPRLPRPRPRPITHPRP	-0.126
RRIRWRPPRLPRPRPRPRRWPRP	0.482
RRIRGRPPRLPRPRPRPFENPRP	0.0511
RRIRYRPPRLPRPRPRPDCPPRP	-0.179
RRIRHRPPRLPRPRPRPMPIPRP	0.113
RRIRVRPPRLPRPRPRPQWWPRP	0.0756
RRIRDRPPRLPRPRPRPAWPPRP	0.815
RRIRQRPPRLPRPRPRPKYKPRP	-0.445
RRIRRRPPRLPRPRPRPVFFPRP	0.255
RRIRSRPPRLPRPRPRPEQEPRP	0.0257
RRIRTRPPRLPRPRPRPPNNPRP	-0.377
RRIRGRPPRLPRPRPRPEFVPRP	1.15
RRIRARPPRLPRPRPRPGWKPRP	0.167
RRIRLRPPRLPRPRPRPKGKPRP	-0.106
RRIRMRPPRLPRPRPRPDETPRP	0.103
RRIRFRPPRLPRPRPRPAPFPRP	-0.236
RRIRPRPPRLPRPRPRPKAFPRP	-0.198
RRIRARPPRLPRPRPRPIGLPRP	0.076
RRIRERPPRLPRPRPRPVNLPRP	-0.441
RRIRCRPPRLPRPRPRPNRYPRP	-0.137

Sequence	shrunken log2 fold change
RRIRARPPRLPRPRPRPTCCPRP	0.653
RRIRPRPPRLPRPRPRPVQMPRP	0.0287
RRIRGRPPRLPRPRPRPTRTPRP	1.32
RRIRARPPRLPRPRPRPLEAPRP	1.21
RRIRDRPPRLPRPRPRPEQPPRP	-0.0458
RRIRVRPPRLPRPRPRPRFHPRP	-0.264
RRIRDRPPRLPRPRPRPIYHPRP	-0.827
RRIRDRPPRLPRPRPRPLNMPRP	0.111
RRIRLRPPRLPRPRPRPPKLPRP	0.252
RRIRCRPPRLPRPRPRPINSPRP	-0.389
RRIRTRPPRLPRPRPRPISHPRP	-0.328
RRIRSRPPRLPRPRPRPKKHPRP	-0.0966
RRIRWRPPRLPRPRPRPCQIPRP	-0.0592
RRIRWRPPRLPRPRPRPLVTPRP	0.687
RRIRGRPPRLPRPRPRPSQGPRP	-0.187
RRIRKRPPRLPRPRPRPCVHPRP	-0.266
RRIRDRPPRLPRPRPRPCNQPRP	-0.285
RRIRFRPPRLPRPRPRPTSDPRP	-0.206
RRIRERPPRLPRPRPRPDGKPRP	0.00926
RRIRVRPPRLPRPRPRPYKCPRP	-0.0495
RRIRWRPPRLPRPRPRPFFFPRP	0.253
RRIRDRPPRLPRPRPRPDTDPRP	0.0647
RRIRWRPPRLPRPRPRPHFNPRP	-0.333
RRIRRRPPRLPRPRPRPQHHPRP	-0.0809
RRIRCRPPRLPRPRPRPHDEPRP	-0.0201

Sequence	shrunken log2 fold change
RRIRGRPPRLPRPRPRPSEAPRP	0.848
RRIRERPPRLPRPRPRPRFDPRP	1.26
RRIRCRPPRLPRPRPRPMMRPRP	0.0843
RRIRKRPPRLPRPRPRPLHWPRP	0.59
RRIRERPPRLPRPRPRPREEPRP	-0.00173
RRIRRRPPRLPRPRPRPRYPPRP	0.252
RRIRTRPPRLPRPRPRPWFKPRP	-0.214
RRIRHRPPRLPRPRPRPDREPRP	0.0062
RRIRQRPPRLPRPRPRPAMHPRP	-0.125
RRIRMRPPRLPRPRPRPAQLPRP	0.101
RRIRARPPRLPRPRPRPCMLPRP	-0.0396
RRIRIRPPRLPRPRPRPTQEPRP	0.0113
RRIRNRPPRLPRPRPRPRANPRP	0.0572
RRIRERPPRLPRPRPRPQMFPRP	0.0221
RRIRKRPPRLPRPRPRPDYDPRP	0.143
RRIRSRPPRLPRPRPRPNGCPRP	-0.0491
RRIRWRPPRLPRPRPRPAKPPRP	0.0169
RRIRNRPPRLPRPRPRPQTPPRP	-0.00271
RRIRSRPPRLPRPRPRPADCPRP	0.0938
RRIRWRPPRLPRPRPRPNHHPRP	-0.457
RRIRTRPPRLPRPRPRPAMTPRP	0.126
RRIRMRPPRLPRPRPRPYTAPRP	0.147
RRIRVRPPRLPRPRPRPWYLPRP	-0.425
RRIRPRPPRLPRPRPRPKDYPRP	-0.0674
RRIRARPPRLPRPRPRPMNAPRP	0.376
